{"source": "paper doi:10.1101/739813", "about": "(bioRxiv, 2019)", "binders": {"B1": {"name": "His6-RILPL2, phospho-Rab binding domain of RILPL2 (residues 129-165) (peptide, UniProt Q969X0 129-165, looked up)", "peptide": "His6-NRPRFTLQELRDVLQERNKLKSQLLVVQEELQCYKSG"}}, "key": {"crystal structure": {"target": "the molecule itself", "assay": "crystal structure"}, "[1]": {"target": "pRab8a(GTP): Rab8a (Q67L, residues 1-181) phosphorylated at T72, GTP-bound (UniProt P61006)", "sequence (P61006 1-181 Q67L)": "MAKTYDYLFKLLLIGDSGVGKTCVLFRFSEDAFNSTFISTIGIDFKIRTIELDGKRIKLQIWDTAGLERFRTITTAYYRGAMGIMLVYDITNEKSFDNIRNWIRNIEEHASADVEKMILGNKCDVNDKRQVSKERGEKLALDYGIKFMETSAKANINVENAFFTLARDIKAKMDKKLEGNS", "assay": "ITC"}}, "note": "Where no end group is shown, it is not given here."}
{"binder": "B1", "values": [{"measurement": "binding result", "setting": "crystal structure", "result": "binds"}, {"measurement": "Kd", "setting": "[1]", "result": 3.3, "unit": "µM"}]}
